Reference: US7390635 (CANCER RESEARCH INSTITUTE OF CONTRA COSTA, dated 2008)

T1: BA46 antigen of the human milk fat globule (HMFG) (human, UniProt Q08431 24-387, limits assumed)
T1 construct: also called 46 kDa HMFG antigen; human milk fat globule preparation
T1 sequence (looked up): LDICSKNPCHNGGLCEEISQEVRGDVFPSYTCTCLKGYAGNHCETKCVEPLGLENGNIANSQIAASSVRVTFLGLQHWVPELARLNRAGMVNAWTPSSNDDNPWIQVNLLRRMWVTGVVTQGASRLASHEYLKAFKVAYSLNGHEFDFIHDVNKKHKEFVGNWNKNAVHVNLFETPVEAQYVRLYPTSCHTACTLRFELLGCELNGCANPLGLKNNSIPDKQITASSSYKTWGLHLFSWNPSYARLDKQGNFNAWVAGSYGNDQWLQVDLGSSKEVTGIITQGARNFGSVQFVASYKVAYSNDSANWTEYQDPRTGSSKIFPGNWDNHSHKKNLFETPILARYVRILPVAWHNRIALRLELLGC


What was measured:
[1] = biological target: T1, BA46 antigen of the human milk fat …; test: competition RIA on plate-bound HMFG; reciprocal of the concentration of unlabeled antibody giving 50% binding
Method: The protocol for the assay was as follows.
Microtiter plates (Dynatech, Chantilly, Va.) were prepared with HMFG according to standard techniques (as described by Ceriani et al., in "Monoclonal Antibodies and Functional Cell Lines" (T. J. McKern et al. eds.), pp. 398-402, New York, Plenum Press, 1984). To each well was added 25 µl ^125I-Mc3 in RIA buffer (10% bovine calf serum, 0.3% TRITON™ X-100, 0.05% sodium azide pH 7.4, in phosphate buffered saline), and competed with 25 µl of either unlabeled murine antibody or murine-human chimeric antibody in RIA buffer at final concentrations in the nanomolar range.
Iodinations were performed with ^125I (17 Ci/mg, Nordion International Inc., Kanata, Ontario, Canada). 50 µg monoclonal antibody Mc3 was labeled (at a specific activity of ~10 mCi/mg) using the chloramine T method as described by Ceriani, R. L., and Blank, E. W. (1988) *Cancer Res.* 48: 4664-4672.

[2] = biological target: T1, BA46 antigen of the human milk fat …; test: affinity as summarised in the description; same assay as Example 10
Method: (§1) Binding studies were conducted as outlined earlier. Briefly, microliter plates were prepared using successive layers of methylated BSA (bovine serum albumin), glutaraldehyde, and a preparation of delipidated HMFG (Ceriani R. L. et al. (1977) PNAS (USA) 74:582-586). Each well was coated with 100 ng of HMFG. Competition experiments were conducted by adding to each well a standard amount of ^125I-MuMc3 and an appropriate dilution of unlabeled MuMc3 or HuMc3 in RIA buffer (10% bovine calf serum, 0.3 TRITON X-100™), 0.05% sodium azide pH 7.4, in PBS). For the determination of affinity constants, each antibody was tested in competition against itself.

[3] = biological target: T1, BA46 antigen of the human milk fat …; test: competition RIA on plate-bound delipidated HMFG, each antibody tested against itself; reciprocal of the concentration giving 50% maximal binding
Method: as §1

| Ka [1] [M⁻¹] | Ka [2] [M⁻¹] | Ka [3] [M⁻¹] | Binder |
| --- | --- | --- | --- |
| 5e+08 |  |  | murine-human chimeric Mc3 antibody (ChMc3) (antibody, V domains shown, also called Chimeric antibody) VH: EVQLQQSGPELVKPGASMKISCEASGYSFTGYTMHWVKQSHGMNLEWIGLINPYNGGTVYNQKFQDKATLTVDKSSGTAYMELLSLTSEDSAVYFCARRWRYTMDYWGQGTSVTVSS VL: DIVMTQSHKFMSTSEGDWVSITCKASQDVSIGVAWYQQKPGQSPKLLIYSASSRYTGVPDRFSGSGSGTDFTFTISSVQAEDLAVYYCQQHYTSPFTFGSGTNLEIK |
| 3e+08 |  |  | murine monoclonal antibody Mc3 (antibody, V domains shown, Whole murine monoclonal antibody from the Mc3 hybridoma, kappa light chain; As the tracer it was labelled with 125I by the chloramine T method; also called MuMc3; Mc3 murine antibody) VH: EVQLQQSGPELVKPGASMKISCEASGYSFTGYTMHWVKQSHGMNLEWIGLINPYNGGTVYNQKFQDKATLTVDKSSGTAYMELLSLTSEDSAVYFCARRWRYTMDYWGQGTSVTVSS VL: DIVMTQSHKFMSTSEGDWVSITCKASQDVSIGVAWYQQKPGQSPKLLIYSASSRYTGVPDRFSGSGSGTDFTFTISSVQAEDLAVYYCQQHYTSPFTFGSGTNLEIK |
|  | 6.2e+08 | 6e+08 | humanized Mc3 antibody (HuMc3) (antibody, human IgG1, V domains shown, Humanized variable regions cloned into pAH4604 (human gamma 1 constant region) and pAG4622 (human kappa constant region), so a human IgG1 kappa; also called HuMc3v2) VH: EVQLVQSGAEVKKPGASVKVSCKASGYSFTGYTMHWVKQSPGMNLEWIGLINPYNGGTVYNQKFQDKATLTVDKSTSTAYMELSSLRSEDTAVYFCARRWRYTMDYWGQGTLVTVSS VL: DIVMTQSPDSLAVSLGERATITCKASQDVSIGVAWYQQKPGQSPKLLIYSASSRYTGVPDRFSGSGSGTDFTLTISSLQAEDVAVYYCQQHYTSPFTFGSGTKVEIK |
